Assay results published in US20040170601A1, “Method of improving the growth performance of an animal” (priority 2001, published 2004).
“Also recorded” adds a separate entry of the source.

Assays:
eosinophils = assay: Example 1: recombinant IL-5 and IL-5 DNA on eosinophil numbers in the blood of pigs; assay type: in vivo; conditions: recombinant IL-5 100 μg IM on 1 or 2 consecutive days, up to 12 days after treatment
Description: This trial compared the effects of recombinant porcine IL-5 protein and DNA delivered porcine IL-5 on eosinophil numbers in the blood of pigs.
6 pigs per treatment, approximately 7-8 weeks of age (weaners), mean weight of approx. 15 kg.
The experiment was conducted using medicated feed Barastoc EziWean 150 then Bunge Grolean CREEP ad libitum in an experimental environment (PC2 containment facilities).
Recombinant IL-5 was expressed in E. coli and purified using a GST tag system. (See, for example, Smith, D. B and Johnson, K. S. (1988), Gene, 67:31-40). IL-5 was cleaved from the GST tag, purified and tested in bioassays to confirm activity.
IL-5 cDNA (including the signal sequence) was cloned into the pCI DNA vector. DNA was purified using the Qiagen Giga Prep kit (Qiagen Inc. USA).
Total white cells and eosinophils were counted from slides.
Pre-bleed for haematology and dose with all treatments (1, 2, 3, 4, 5 as shown above)
8 hrs later, bleed for haematology

[1] = Example 4: growth performance of pigs administered IL-5 in a commercial piggery; assay type: in vivo; design: average weight, higher than saline medicated controls / rate of gain (ROG), increase over saline medicated control / increase in total weight compared to saline medicated control group / increase in weight gain compared to saline medicated control group / increase in average weight compared to saline medicated control group: concentration or dose not given beside the values
Description: This trial evaluated the capacity of IL-5 to improve growth performance and immunity of pigs by comparing the growth rate and health of weaner pigs (28 day old weaners is Day 0 of the trial and the weaner period continued for 42 days) through to the finisher stage (Days 93 to 113) and slaughter (133 days after commencing the trial). The pigs were administered recombinant porcine cytokine, IL-5, and saline was used as a control, with and without standard weaner medicated water and feed in a commercial piggery environment.
40 pigs per treatment mixed in-groups of 20, with 4 replicates containing standard medicated water and feed and 4 replicates without medicated feed or water.
Overall weights for each group at the start of the experiment were equivalent. All pigs at the start of the trial (Day 0) were 28 day old male weaners.
IL-5 was provided in saline to inject one ml/pig.
Weights were measured at the start, weekly and at end of the experiment. The original proposal was designed for measuring weight over the weaner period; however, due to significant growth responses with IL-5 administration the measurement of weight continued to slaughter (pigs were 161 days old).
Recombinant porcine IL-5 was expressed in E. coli and purified using a polyHis tag system as described in Qiagen Inc, USA, instructions and Clontech, USA, Talon Manual instructions. IL-5 was tested for biological activity in a bioassay prior to the start of the experiment.
At the start of the trial, the mean weights and variance for each group were equalised. Thus, the increase in total or average weights witnessed in the IL-5 medicated group was due to IL-5 administration and not simply due to differences between weights at the start of the trial.

[2] = end of the treatment period, 1st trial, IL-5 plus medication

B1: interleukin 5 (protein, UniProt Q9MYM5 22-134, looked up)
Interleukin-5: VENTMNRLVAETLTLLSIHRTLLIGDGNLMISTPVHTNHQLCIEEVFQGIDTLKNQTARGDAVEKLFQNLSLIKEYIDRQKKNCGGERWRVTQFLDYLQVFLGVINTEWTMES
notes: recombinant porcine IL-5 protein expressed in E. coli; + / − = with / without antibiotic medicated feed and water, +p = weaner period only
eosinophils
  percentage eosinophils of white blood cells (WBC): transient (several days)
eosinophils; listed as recombinant IL-5
  percentage eosinophils of white blood cells (WBC): sustained increase in eosinophil numbers in blood over several days; also recorded: two doses being more effective than one dose; also recorded: more effective than DNA in increasing eosinophil numbers
[1]; IL-5 medicated group
  consistency of growth performance (individual weights at end of weaner period): more consistent than all other groups
[1]; IL-5 medicated group, Week 1
  average weight, higher than saline medicated controls: 5.5%
  rate of gain (ROG), increase over saline medicated control: 45.6%
  total combined group weight, higher than saline medicated group: 5.5%
[1]; IL-5 medicated group, Week 2
  average weight, higher than saline medicated controls: 6.3%
  rate of gain (ROG), increase over saline medicated control: 19.6%
  total combined group weight, higher than saline medicated group: 6.3%
[1]; IL-5 medicated group, Week 3
  average weight, higher than saline medicated controls: 8.8%
  rate of gain (ROG), increase over saline medicated control: 18.2%
  total combined group weight, higher than saline medicated group: 8.8%
[1]; IL-5 medicated group, Week 4
  average weight, higher than saline medicated controls: 5.5%
  rate of gain (ROG), increase over saline medicated control: 8.8%
  total combined group weight, higher than saline medicated group: 11.1%
[1]; IL-5 medicated group, Week 5
  average weight, higher than saline medicated controls: 7.8%
  rate of gain (ROG), increase over saline medicated control: 11.3%
  total combined group weight, higher than saline medicated group: 13.4%
[1]; IL-5 medicated group, Week 6
  average weight, higher than saline medicated controls: 6.8%
  rate of gain (ROG), increase over saline medicated control: 9.1%
  total combined group weight, higher than saline medicated group: 18.6%
[1]; IL-5 un-medicated group vs un-medicated saline controls
  average weights during weaner period: consistently small increase in average weights over the un-medicated saline controls except for the last week
[1]; [2]
  increase in average weight compared to saline medicated control group: 7%
  increase in total weight compared to saline medicated control group: 18%
  increase in weight gain compared to saline medicated control group: 9%
[1]; medicated
  average weights of individual pigs during trial: consistently higher average weights than all other groups
  increase of average warm carcass weight over the medicated saline control: 6 kg
  rate of gain over the weaner period: consistently increased the rate of gain in the medicated pigs
  total weights of all pigs in group over the entire production period: significant increase in total weights compared to all other groups
[1]; medicated with antibiotics, vs saline controls
  warm carcass weight: increased warm carcass weight compared to saline controls when pigs were medicated with antibiotics
[1]; medicated, all pigs of group
  individual final weights: above 90 kg
[1]; over 6 weeks for a group of 20 pigs, medicated
  total combined group weight above saline medicated group: 89 kg
[1]; un-medicated
  rate of gain over the weaner period: generally higher than the un-medicated saline control
[1]; up to slaughter
  variation in individual pig weights: reduced variation in individual pig weights up to slaughter
[1]; with or without antibiotics, vs saline controls
  dressing percentage of carcasses at slaughter: improved dressing percentage regardless of antibiotic administration; also recorded: significantly higher % dressing than the respective saline controls
